We go through one molecule from article PMC12152872 (2025).

This test addresses T1, BTN2A1 B30.2 (Homo sapiens, UniProt Q7KYR7).
T1 chain: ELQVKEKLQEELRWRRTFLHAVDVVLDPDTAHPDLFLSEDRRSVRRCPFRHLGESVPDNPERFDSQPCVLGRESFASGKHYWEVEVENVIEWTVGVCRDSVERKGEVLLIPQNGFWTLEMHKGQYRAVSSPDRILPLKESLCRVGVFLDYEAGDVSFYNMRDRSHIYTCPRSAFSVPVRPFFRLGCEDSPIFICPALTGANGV
Briefly: ITC.

Values joined by “and” are separate entries in the source; they are usually repeats but may differ in a detail not shown here. Equal values may be shown once.

B1: BTN3A1 B30.2 (protein)
chain: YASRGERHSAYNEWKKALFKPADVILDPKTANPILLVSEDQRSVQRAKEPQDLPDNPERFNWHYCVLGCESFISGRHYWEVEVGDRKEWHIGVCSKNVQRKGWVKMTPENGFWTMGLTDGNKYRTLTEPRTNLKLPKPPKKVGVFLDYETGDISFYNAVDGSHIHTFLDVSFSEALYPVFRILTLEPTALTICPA
modifications: DMASPP
As to B1, the Kd was 8.19 µM and 18.8 µM.
